B1: C. crescentus ParB on a cysteine-less ParB background [C. crescentus] / itself (parent)
chain: MESVVVGEPGMSEGRRGLGRGLSALLGEVDAAPACAPGEQLGGSREAPIEILQRNPDQPRRTFREEDLEDLSNSIREKGVLQPILVRPSPDTAGEYQIVAGERRWRAAQRAGLKTVPIMVRELDDLAVLEIGIIENVQRADLNVLEEALSYKVLMEKFERTQENIAQTIGKSRSHVANTMRLLALPDEVQSYLVSGELTAGHARAIAAAADPVALAKQIIEGGLSVRETEALARKAPNLSAGKSKGGRPPRVKDTDTQALESDLSSVLGLDVSIDHRGSTGTLTITYATLEQLDDLSNRLTRGI

Variants of: B1
Experiment: BMOE crosslinking assay
Conditions: with itself, 8 µM ParB variant, 0.5 µM 22 bp parS DNA, 5 min preincubation, read off a plot
[1] = 1 µM CTP point (lowest), parent: 33
[2] = 1000 µM CTP point (highest), parent: 80

Variant	response [1] [%]	response [2] [%]
chain 1 E102A	31	80
chain 1 E135A	68	80
chain 1 G79S	27	62
chain 1 N136A	52	64
chain 1 Q58A	64	79
chain 1 Q82A	31	76
chain 1 R60A	32	49
chain 1 R103A	30	34
chain 1 R104A	24	23
chain 1 R139A	28	36
chain 1 S74A	28	39

From article PMC8367383, “A CTP-dependent gating mechanism enables ParB spreading on DNA” (eLife, 2021)
